Assay results published in paper PMC8551457.
Entries after “also recorded” stand apart in the source; their conditions may differ.

Assays:
[1] = molecular target: phytochrome-associated protein phosphatase 5 from Arabidopsis thaliana (AtPAPP5), isoform 2, 1-484, affinity tag removed, labelled with a green maleimide dye (Arabidopsis thaliana) (UniProt Q84XU2); assay: MST; labelled AtPAPP5 at 50 nM, AtPhyB(1-651) variant titrated (S86D 4 nM to 70 uM, S84D 2 nM to 29 uM); 100 uM arachidonic acid (AA) added, 15 min incubation; 25 °C; premium coated capillaries; 1:1 binding model; apparent KD; phytochrome in photodynamical equilibrium with prevalence of Pfr
[2] = phosphorylation at S86

Chain of UniProt Q84XU2 (Q84XU2 other isoform, or with tags, fused parts or gaps): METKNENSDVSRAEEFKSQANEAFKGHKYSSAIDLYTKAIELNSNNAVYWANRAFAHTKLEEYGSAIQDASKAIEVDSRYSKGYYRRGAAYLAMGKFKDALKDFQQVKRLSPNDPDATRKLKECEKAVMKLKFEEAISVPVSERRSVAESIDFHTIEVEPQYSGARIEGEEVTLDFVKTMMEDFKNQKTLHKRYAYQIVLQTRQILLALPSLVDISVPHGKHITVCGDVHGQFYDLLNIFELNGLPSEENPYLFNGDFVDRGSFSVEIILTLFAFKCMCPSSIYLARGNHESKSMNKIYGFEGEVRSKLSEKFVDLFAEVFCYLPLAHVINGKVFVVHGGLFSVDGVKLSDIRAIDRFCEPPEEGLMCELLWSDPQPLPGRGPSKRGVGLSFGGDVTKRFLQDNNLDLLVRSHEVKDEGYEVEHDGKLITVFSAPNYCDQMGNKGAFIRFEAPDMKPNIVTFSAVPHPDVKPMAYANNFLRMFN

| Substance | Kd [1] [µM] | other [2] |
| --- | --- | --- |
| AtPhyB(1-651) S84D, phosphomimetic variant of the photosensory module of Arabidopsis thaliana phytochrome B (domain or fragment) | 1.3 |  |
| AtPhyB(1-651) S86D, phosphomimetic variant of the photosensory module of Arabidopsis thaliana phytochrome B (domain or fragment) | 1.8 |  |
| phytochrome B (AtPhyB): S86D phosphomimetic |  | increases, dark conversion t1/2 40 min vs 270 min for wild type; also recorded: changes, 5 nm bathochromic shift of the Pfr absorption maximum |
